Measured values reported in patent US20250002596A1, “NEUTRALIZING ANTI-CD95L MONOCLONAL ANTIBODIES” (INSTITUT NATIONAL DE LA SANTÉ ET DE LA RECHERCHE MÉDICALE, priority 2021, published 2025).
“Also recorded” adds a separate entry of the source.

Key:
CD95L = CD95L (UniProt P48023); test: flow cytometry (1A12 cells)
IgCD95L = IgCD95L (UniProt P48023); test: SPR
[1] = target: T1, Ig-CD95L (soluble and cytotoxic human CD95L) (UniProt P48023 103-281); test: SPR
T1 chain: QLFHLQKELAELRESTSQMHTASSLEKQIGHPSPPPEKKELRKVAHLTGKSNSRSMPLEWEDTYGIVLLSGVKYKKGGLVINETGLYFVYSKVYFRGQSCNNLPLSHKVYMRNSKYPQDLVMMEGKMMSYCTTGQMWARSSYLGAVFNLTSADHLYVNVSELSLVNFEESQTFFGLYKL

[2] = target: T2, human CD95L expressed on cells (human, UniProt P48023 1-281); test: flow cytometry on HEK/293T cells transiently transfected with CD95L, antibody at 1 µg/ml
T2 construct: also called FasL; FASL
T2 sequence: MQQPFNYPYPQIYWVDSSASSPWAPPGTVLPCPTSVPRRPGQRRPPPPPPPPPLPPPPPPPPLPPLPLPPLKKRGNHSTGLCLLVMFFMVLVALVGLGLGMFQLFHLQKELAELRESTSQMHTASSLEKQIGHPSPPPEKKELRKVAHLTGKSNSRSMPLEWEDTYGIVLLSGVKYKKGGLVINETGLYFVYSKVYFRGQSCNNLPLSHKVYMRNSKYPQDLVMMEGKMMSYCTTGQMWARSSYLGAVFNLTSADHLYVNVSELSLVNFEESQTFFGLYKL
Description: (§1) FIG. 1. JQ3 recognizes human and simian CD95L and is a stronger neutralizing anti-CD95L mAb as compared to the commercial anti-CD95L antibody NOK-1. A. Kon, Koff and Kd of JQ3 (IgG1κ) and NOK-1 (IgG1κ) hybridoma measured by surface plasmon resonance. IgCD95L was immobilized on a sensor chip S CM5 and antibody binding features was evaluated using a Biacore T200. B. The ability of the anti-human CD95L monoclonal antibodies NOK-1 and JQ3 and anti-mouse CD95L monoclonal antibody MFL3 (1 μg/ml) to recognize human, simian or mouse CD95L was determined by flow cytometry using HEK/293T cells transiently transfected with indicated CD95L-encoding pcDNA3.1 vectors. C. The binding efficiency of NOK-1 and JQ3 was compared by flow cytometry against CD95L-expressing 1A12 cell line. Left panel: Histograms report the intensity of CD95L staining (CD95L mean of fluorescence—isotypic mean of fluorescence) according to the antibody concentration (M). Right panels: examples of CD95L staining, in red the JQ3 or NOK-1 staining and in grey the isotypic staining. Table indicates the half maximal effective concentration (EC50) for each antibody. D. The neutralizing ability of NOK1 and JQ3 mAbs was compared by incubating CD95-sensitive Jurkat cell line (5.10⁵ cells) for 24 hours with 100 ng/ml of Ig-CD95L (soluble and cytotoxic human CD95L) in the presence or absence of the indicated concentrations of antibody.

[3] = target: T3, human CD95L expressed on cells (UniProt P48023 1-281); test: flow cytometry (1A12 cells)
T3 chain: T2 sequence

simian CD95L = test: Flow cytometry recognition of CD95L on transiently transfected HEK/293T cells; type: cell-based; conditions: antibody 1 μg/ml, HEK/293T cells transfected with CD95L-encoding pcDNA3.1 vector
Description: as §1, with “JQ3 recognizes human and simian CD95L and is a stronger neutralizing anti-CD95L mAb as compared to the commercial anti-CD95L antibody NOK-1.” left out, “(5.10^5” for “(5.10⁵”

human CD95L = target: T4, human CD95L (Homo sapiens, UniProt P48023); test: as above; type: cell-based; conditions: antibody 1 μg/ml, HEK/293T cells transfected with CD95L-encoding pcDNA3.1 vector
T4 construct: expressed in transfected cells; host or cells: HEK/293T
T4 sequence (P48023 1-281): T2 sequence
Description: as §1, with “JQ3 recognizes human and simian CD95L and is a stronger neutralizing anti-CD95L mAb as compared to the commercial anti-CD95L antibody NOK-1.” left out, “(5.10^5” for “(5.10⁵”

[4] = test system: Ig-CD95L (soluble and cytotoxic human CD95L); test: Neutralization of Ig-CD95L-induced cell death in Jurkat T-cells (MTT assay); type: cell-based; conditions: 24 hours, 100 ng/ml Ig-CD95L, compared with NOK-1
Description: as §1, with “JQ3 recognizes human and simian CD95L and is a stronger neutralizing anti-CD95L mAb as compared to the commercial anti-CD95L antibody NOK-1.” left out, “D. The neutralizing ability of NOK1 and JQ3 mAbs was compared by incubating CD95-sensitive Jurkat cell line (5.10⁵ cells) for 24 hours with 100 ng/ml of Ig-CD95L (soluble and cytotoxic human CD95L) in the presence or absence of the indicated concentrations of antibody.” left out
Cell viability was assessed using MTT (3-(4,5-dimethylthiazol-2-yl)-2,5-diphenyltetrazolium bromide) assay as previously described (48). […] Then, MTT (15 μl at 5 mg/mL in PBS) was added, and after 4 h of incubation at 37° C., the absorbance was measured at 570 nm wavelength using the Infinite200Pro (Tecan, Männedorf, Switzerland).

[5] = test system: CD95-mediated Ca^2+ response in neutrophils; test: Calcium response (Cal-520 imaging) of healthy donor neutrophils stimulated with patient sera; type: cell-based, human; conditions: sera from AAV or COVID-19 patients pre-incubated 30 min with antibody 10 μg/mL

NOK-1
EC50 (CD95L): 353000 nM

NOK1
Kd (IgCD95L): 5.3 nM

B1: JQ3 neutralizing anti-CD95L monoclonal antibody (IgG1κ) (antibody, V domains shown)
VH: EIQLQQTGPELVKPGASVKISCKASGFSFTDYIMVWVKQSHGKILEWIGDISPYYGTATYNLKFKGKATLTVVKSSSTAYMQLNSLTSEDSAVYYCARAPNRYEVMDYWGQGTSVTVSS
VL: QIVFTQSPAIMSAFLGEEITLTCSASSSVSYMHWYQQKSGTSPKLLIYNTFNLASGVPSRFSGSGSGTFYSLTISSVEAEDAADYYCHQWSSYPTFGGGTKLEIK
notes: Mouse (Balb/c) hybridoma antibody, IgG1 kappa, purified on protein A; also called JQ3 mAb
Kd [1]: 2.2 nM | binding result [2]: binds | EC50 [3]: 5.53 nM

B2: JQ3: neutralizing anti-CD95L monoclonal antibody (IgG1κ), mouse hybridoma; VL and VH domains given as sequences (antibody, V domains shown)
VH: B1 VH
VL: B1 VL
recognition of simian CD95L (simian CD95L): recognizes | recognition of human CD95L (human CD95L): recognizes | neutralizing ability (inhibition of CD95-mediated apoptotic signaling pathway) [4]: stronger neutralizing anti-CD95L mAb as compared to the commercial anti-CD95L antibody NOK-1; also recorded: inhibited the CD95-mediated apoptotic signaling pathway induced in T-cell line Jurkat more efficiently than NOK-1 mAb | inhibition of neutrophil activation (calcium response) [5]: inhibit neutrophil activation (calcium response); also recorded: blocked the CD95-mediated Ca^2+ response
